Test results published in patent US12122830 (ABL BIO, dated 2024).

Key:
[1] = molecular target: T1, human ROR1 expressed on the cell surface (human, UniProt Q01973 30-937); assay: flow cytometry on A549 cells (lung cancer), C2E3 IgG at 10 µg/mL, MFI of anti-ROR1 / MFI of 2nd Ab
T1 construct: whole, on cells; On JeKo-1 and Mino cells and other cancer cell lines (endogenous) and on transfected CHO and MC38 cells; also called cell surface-expressed ROR1; CHO-human ROR1
Procedure: (§1) For the cell lines, the binding to ROR1 was analyzed with FACS (FACSCalibur, BD Biosciences) by using the anti-ROR1 antibody of the present invention.
(§2) Specifically, after disassociating each cell line and washing in PBS, the number of cells was counted and set as 2 ×10^5 cells/200 µl PBS, and then the clone C2E3 among ROR1 monoclonal antibodies prepared in Example 3 was treated in 10 µg/mL, and it was reacted at 4° C. for 1 hour. After reaction, cells were washed in PBS, and then the FITC-labeled constant region (Fc)-specific antibody (Goat anti-human IgG FITC conjugate, Fc specific, Sigma, F9512, concentration: 2.0 mg/ml) was suspended in 2 µl/1 ×10^5 cells/200 µl PBS, and it was reacted at 4° C. for 1 hour. After reaction, cells were washed in PBS, it was analyzed using a FACSCalibur device. The negative control group was treated only with the FITC-labeled constant region (Fc)-specific antibody. To compare the expression degrees of ROR1 among the cancer cell lines, the value of the result for the peak shift in the experimental group treated with the ROR1 monoclonal antibody (C2E3) of the present invention was divided by the result for the peak shift in the control group (Mean Fluorescence Intensity Ratio MFI Ratio: MFI of anti-ROR1/MFI of 2nd Ab).

[2] = molecular target: T2, mouse ROR1 expressed on the cell surface (CHO-mouse ROR1) (mouse, UniProt Q9Z139 30-937); assay: flow cytometry on CHO cells transiently overexpressing mouse ROR1, FITC anti-human Fc detection, MFI ratio to 2nd Ab
T2 construct: whole, on cells; Temporarily transfected CHO cells
Procedure: For this experiment, the degree of binding of the anti-ROR1 antibody and ROR1 was measured by using FACSCalibur (BD Biosciences) device with the cell lines as follows, the cell lines artificially overexpressing the ROR1 protein by transfecting an ROR1 gene temporarily (CHO-human ROR1, CHO-human ROR2, CHO-mouse ROR1) or stably (MC38-human ROR1) (FIG. 5 and FIG. 7, respectively) or the cell lines expressing ROR1 (JeKo-1, Mino) (FIG. 6) or a cell line not expressing ROR1 (MCF7) (FIG. 6). […] JeKo-1, Mino, CHO-human ROR1, CHO-mouse ROR1 and MC38-human ROR1 are all cell lines expressing human ROR1 or mouse ROR1.
Specifically, after disassociating each cell line and washing in PBS, the number of cells was counted and set as 2×10^5 cells/200 µl PBS, and then each ROR1 monoclonal antibody in Example 3 was prepared in 10 µg/mL or as 5 fold-diluted from 10 µg/mL, and was reacted at 4° C. for 1 hour. After reaction, cells were washed in PBS and then the FITC-labeled constant region (Fc)-specific antibody (Goat anti-human IgG FITC conjugate, Fc specific, Sigma, F9512, concentration: 2.0 mg/ml) was suspended in 2 µl/1×10^5 cells/200 µl PBS, and it was reacted at 4° C. for 1 hours. The confirmation of expression degree of human ROR1, human ROR2 and mouse ROR1 that were temporarily overexpressed was analyzed by using a commercially available antibody for FACS analysis (anti-ROR1: R&D Systems, FAB2000G, anti-ROR2: R&D, FAB20641P). After reaction, cells were washed in PBS and decoded by using a FACSCalibur device. The negative control group (2nd Ab) was treated only with the FITC-labeled constant region (Fc)-specific antibody. The result for the peak shift in the experimental group treated with each ROR1 monoclonal antibody was compared to the result for the shift in the control group (Mean Fluorescence Intensity Ratio, MFI Ratio: MFI of anti-ROR1/MFI of 2nd Ab).

[3] = molecular target: T1, human ROR1 expressed on the cell surface; assay: flow cytometry on HCC1143 cells (breast cancer), C2E3 IgG at 10 µg/mL, MFI of anti-ROR1 / MFI of 2nd Ab
Procedure: as §1, §2

[4] = molecular target: T3, recombinant mouse ROR1 protein (Acrobiosystems, RO1-M5221) (mouse, UniProt Q9Z139 30-406); assay: ELISA, recombinant mouse ROR1 protein coated at 1 µg/ml, IgG titrated, HRP anti-Fab detection
T3 construct: extracellular domain; Bought; also called mouse ROR1 antigen
Procedure: The anti-ROR1 antibody-antigen binding affinity was estimated by using an ELISA-based solution binding test. Specifically, a 96-well microtiter plate (Nunc-Immuno Plates, NUNC) was coated with the ROR1 protein at a concentration of 1 µg/ml in a PBS solution as described below at 4° C. for 16 hours, and non-specific binding sites were blocked with 3% BSA (bovine serum albumin) for 2 hours. For this, as the ROR1 protein, in case of human ROR1, ROR1-Fc of Example 1 or recombinant ROR1-His (Sino Biological, 13968-H08H) was used. The ROR1-His used for ELISA was a protein of sino biological company (13968-H08H) as described in the above sentence, and ROR1-His of Example 1 or recombinant mouse ROR1 protein was used (Acrobiosystems, RO1-M5221-100 µg).
Then, after adding the anti-ROR1 antibody prepared in Example 3 at the concentration described in FIG. 2 into the microtiter plate on a 96-well microtiter plate, the binding capacity was analyzed with ELISA as follows. Specifically, after constant temperature treatment for 2 hours, the plate was washed with PBS comprising 0.05% tween 20 5 times, and then a HRP-conjugated Fab multiclonal antibody reagent (Pierce, 31414) was diluted at 1:10,000 ratio, and was put into the washed microtiter plate, and it was incubated at 37° C. for 1 hour, and the ROR1 antibody bound to the plate was detected. After reaction, it was color-developed by using TMB (Tetramethylbenzidine, Sigma, T0440). The enzymatic reaction was stopped by 0.5 mol/L of sulfuric acid, and the absorbances at 450 nm and 650 nm were measured by using a micro plate reader device (molecular device) (450 nm-650 nm).

[5] = molecular target: T1, human ROR1 expressed on the cell surface; assay: flow cytometry on HCC1187 cells (breast cancer), C2E3 IgG at 10 µg/mL, MFI of anti-ROR1 / MFI of 2nd Ab
Procedure: as §1, §2

[6] = molecular target: T1, human ROR1 expressed on the cell surface; assay: flow cytometry on MDA-MB-231 cells (breast cancer), C2E3 IgG at 10 µg/mL, MFI of anti-ROR1 / MFI of 2nd Ab
Procedure: as §1, §2

T1 sequence (Q01973 30-937): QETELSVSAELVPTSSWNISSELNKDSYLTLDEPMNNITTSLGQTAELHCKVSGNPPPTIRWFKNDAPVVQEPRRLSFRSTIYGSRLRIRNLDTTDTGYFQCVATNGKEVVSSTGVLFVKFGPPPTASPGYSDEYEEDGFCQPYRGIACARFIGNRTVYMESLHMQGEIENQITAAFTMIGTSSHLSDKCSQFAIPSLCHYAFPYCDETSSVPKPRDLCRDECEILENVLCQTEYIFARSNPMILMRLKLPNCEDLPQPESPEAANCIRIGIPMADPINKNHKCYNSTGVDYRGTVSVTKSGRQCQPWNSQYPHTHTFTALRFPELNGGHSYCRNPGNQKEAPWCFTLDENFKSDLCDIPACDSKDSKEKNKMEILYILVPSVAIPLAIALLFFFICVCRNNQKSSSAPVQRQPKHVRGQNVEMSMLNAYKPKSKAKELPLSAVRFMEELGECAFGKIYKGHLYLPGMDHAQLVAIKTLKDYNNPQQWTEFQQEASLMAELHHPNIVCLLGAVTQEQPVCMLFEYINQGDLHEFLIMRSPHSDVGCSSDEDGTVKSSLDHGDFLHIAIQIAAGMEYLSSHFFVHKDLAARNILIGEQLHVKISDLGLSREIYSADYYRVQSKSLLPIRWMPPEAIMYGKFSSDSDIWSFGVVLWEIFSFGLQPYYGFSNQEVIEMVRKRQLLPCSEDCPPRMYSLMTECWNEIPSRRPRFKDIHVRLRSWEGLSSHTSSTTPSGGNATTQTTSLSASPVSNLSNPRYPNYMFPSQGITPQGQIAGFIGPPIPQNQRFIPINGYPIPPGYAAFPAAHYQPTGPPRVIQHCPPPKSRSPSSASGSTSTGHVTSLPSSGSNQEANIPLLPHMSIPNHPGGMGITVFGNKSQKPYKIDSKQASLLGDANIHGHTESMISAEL
T2 sequence (Q9Z139 30-937): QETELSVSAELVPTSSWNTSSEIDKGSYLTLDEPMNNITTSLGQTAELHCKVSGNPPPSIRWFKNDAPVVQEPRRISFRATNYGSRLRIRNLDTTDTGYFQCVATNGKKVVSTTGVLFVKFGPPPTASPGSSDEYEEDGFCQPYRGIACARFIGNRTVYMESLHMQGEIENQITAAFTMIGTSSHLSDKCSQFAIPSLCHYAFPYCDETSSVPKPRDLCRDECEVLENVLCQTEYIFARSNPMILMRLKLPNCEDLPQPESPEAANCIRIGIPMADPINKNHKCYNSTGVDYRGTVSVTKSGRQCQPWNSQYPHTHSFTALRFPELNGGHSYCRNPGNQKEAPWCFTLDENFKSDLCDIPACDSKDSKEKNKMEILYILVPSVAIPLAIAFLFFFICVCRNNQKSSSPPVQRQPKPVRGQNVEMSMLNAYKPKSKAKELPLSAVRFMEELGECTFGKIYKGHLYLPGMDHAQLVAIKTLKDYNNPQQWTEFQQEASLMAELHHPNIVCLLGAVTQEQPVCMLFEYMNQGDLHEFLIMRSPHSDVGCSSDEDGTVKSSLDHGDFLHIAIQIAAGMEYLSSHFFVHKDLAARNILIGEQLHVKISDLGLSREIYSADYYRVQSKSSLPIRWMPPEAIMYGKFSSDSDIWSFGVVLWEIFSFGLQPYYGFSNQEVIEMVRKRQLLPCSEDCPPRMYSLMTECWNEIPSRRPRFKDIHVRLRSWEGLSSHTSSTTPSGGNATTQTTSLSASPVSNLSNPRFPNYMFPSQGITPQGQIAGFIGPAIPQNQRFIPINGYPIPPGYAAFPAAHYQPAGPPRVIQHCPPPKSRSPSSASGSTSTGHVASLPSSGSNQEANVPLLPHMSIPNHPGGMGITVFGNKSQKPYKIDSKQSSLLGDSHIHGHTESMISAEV
T3 sequence (Q9Z139 30-406): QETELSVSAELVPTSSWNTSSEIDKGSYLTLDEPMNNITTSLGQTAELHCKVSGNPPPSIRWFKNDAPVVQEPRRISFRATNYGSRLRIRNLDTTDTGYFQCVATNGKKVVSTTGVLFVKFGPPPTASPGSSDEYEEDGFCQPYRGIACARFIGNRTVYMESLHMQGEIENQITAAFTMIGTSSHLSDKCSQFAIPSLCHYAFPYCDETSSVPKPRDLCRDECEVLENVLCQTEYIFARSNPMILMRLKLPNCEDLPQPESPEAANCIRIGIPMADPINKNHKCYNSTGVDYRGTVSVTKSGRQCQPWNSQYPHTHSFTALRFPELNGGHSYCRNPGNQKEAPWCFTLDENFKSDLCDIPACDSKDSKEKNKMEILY

Mean Fold Ratio [1]: 6 | binding result [2]: binds | Mean Fold Ratio [3]: 3.2 | binding result [4]: binds | Mean Fold Ratio [5]: 9.3 | Mean Fold Ratio [6]: 8.8
B1: C2E3 anti-ROR1 IgG antibody (antibody, V domains shown)
VH: EVQLLESGGGLVQPGGSLRLSCAASGFTFSNYAMSWVRQAPGKGLEWVSSISHNSGSTYYADSVKGRFTISRDNSKNTLYLQMNSLRAEDTAVYYCAKFISARKSLGRSYSNGMDVWGQGTLVTVSS
VL: QSVLTQPPSASGTPGQRVTISCTGSSSNIGSNDVTWYQQLPGTAPKLLIYADSKRPSGVPDRFSGSKSGTSASLAISGLRSEDEADYYCGTWDYSLSGYVFGGGTKLTVLG
